Molecular target: Cas9 (Streptococcus pyogenes, UniProt Q99ZW2 1-1368)
Assay: R-loop formation gel assay (deproteinised); sgran50; 5 mM EDTA; efficiency similar to fusions; 25 mM Tris pH 7.5, 106 mM KCl, 50 ug/ml BSA, 5 mM EDTA, 2 mM DTT, 9% glycerol, 37 C; 150 nM protein, 300 nM sgRNA, 25 nM Cy5-dsran50, 75 nM unlabelled MW12 dsDNA competitor; 8% acrylamide TBE gel
Details: protein: recombinant, tags: His6, label: 5'-Cy5 on ssran50 strand (strand 2), blunt 50 bp DNA target plus sgRNA, PAM TGG

Chain of Cas9 (Q99ZW2 whole entry, the tested form may be a part): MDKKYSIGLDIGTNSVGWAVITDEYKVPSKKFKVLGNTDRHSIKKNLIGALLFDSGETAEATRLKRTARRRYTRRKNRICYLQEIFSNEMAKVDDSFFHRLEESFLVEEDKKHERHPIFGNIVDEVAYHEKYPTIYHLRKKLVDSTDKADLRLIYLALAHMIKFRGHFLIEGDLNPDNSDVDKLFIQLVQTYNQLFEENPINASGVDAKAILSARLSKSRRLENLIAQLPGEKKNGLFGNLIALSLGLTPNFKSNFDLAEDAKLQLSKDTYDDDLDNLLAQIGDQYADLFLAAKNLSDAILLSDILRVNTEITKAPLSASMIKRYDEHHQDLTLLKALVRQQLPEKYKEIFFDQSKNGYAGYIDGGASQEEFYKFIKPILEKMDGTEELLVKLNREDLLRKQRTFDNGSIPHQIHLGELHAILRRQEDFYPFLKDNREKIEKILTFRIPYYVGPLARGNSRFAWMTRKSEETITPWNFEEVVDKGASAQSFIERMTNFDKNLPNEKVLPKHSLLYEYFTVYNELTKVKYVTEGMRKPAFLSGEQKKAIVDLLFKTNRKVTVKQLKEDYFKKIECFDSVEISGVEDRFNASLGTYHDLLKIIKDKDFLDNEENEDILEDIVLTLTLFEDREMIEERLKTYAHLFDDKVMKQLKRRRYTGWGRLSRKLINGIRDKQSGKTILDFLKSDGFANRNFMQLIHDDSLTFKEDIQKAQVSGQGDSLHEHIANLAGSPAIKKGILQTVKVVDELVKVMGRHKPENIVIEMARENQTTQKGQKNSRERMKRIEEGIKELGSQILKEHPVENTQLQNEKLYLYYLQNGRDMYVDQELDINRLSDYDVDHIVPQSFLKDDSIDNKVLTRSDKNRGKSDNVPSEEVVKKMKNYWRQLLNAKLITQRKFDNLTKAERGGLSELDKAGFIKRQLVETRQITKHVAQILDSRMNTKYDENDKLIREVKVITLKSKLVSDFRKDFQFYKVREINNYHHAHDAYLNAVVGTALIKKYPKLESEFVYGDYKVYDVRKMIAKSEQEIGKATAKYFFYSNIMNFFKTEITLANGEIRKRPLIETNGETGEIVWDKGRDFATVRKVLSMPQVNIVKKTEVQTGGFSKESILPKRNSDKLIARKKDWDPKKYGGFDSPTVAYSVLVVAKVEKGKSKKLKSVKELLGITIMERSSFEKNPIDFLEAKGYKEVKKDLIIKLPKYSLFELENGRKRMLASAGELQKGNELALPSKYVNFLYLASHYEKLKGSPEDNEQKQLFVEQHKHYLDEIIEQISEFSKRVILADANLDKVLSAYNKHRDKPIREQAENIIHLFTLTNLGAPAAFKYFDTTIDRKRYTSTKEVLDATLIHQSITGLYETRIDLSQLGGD

B1: sgran50 + dsran50 (mixed)
RNA: GGUAGACGAUUACAUUGCUACAGUUUUAGAGCUAGAAAUAGCAAGUUAAAAUAAGGCUAGUCCGUUAUCAACUUGAAAAAGUGGCACCGAGUCGGUGCUU
DNA 1: CAACGTCATAGACGATTACATTGCTACATGGAGCTGTCTAGAGGATCCGA
DNA 2: TCGGATCCTCTAGACAGCTCCATGTAGCAATGTAATCGTCTATGACGTTG
binding result: binds
